The values below come from PMC12069319, “Transcriptional co-regulator OCA-B/Pou2af1 restricts Th2 differentiation”.

This data set concerns the target Oct1 DNA binding domain (Oct1-DBD);OCA-B (human (from pBabe-hOct1);, UniProt P14859;Q16633 280-438;1-256, |). The experiment in a line: EMSA; OCA-B supershifts Oct1-DBD; EMSA: 0.6X buffer D (1X: 20 mM HEPES, 100 mM KCl, 1 mM DTT), 50 ng/ul poly-dI/dC, 1 ug/ul BSA, on ice 15 min, 6% native PAGE in 0.5X TBE; probe 50 nM (1 nM for). The conditions noted are these: protein: recombinant;recombinant; tags: His (pET28a);C-terminal twinstrep and FLAG; copies: 1;1; blunt. On the technique in general: Mobility shift assays separate free from complexed probe on a gel.

Oct1 DNA binding domain (Oct1-DBD);OCA-B, sequence (P14859 280-438, chain 1 of 2): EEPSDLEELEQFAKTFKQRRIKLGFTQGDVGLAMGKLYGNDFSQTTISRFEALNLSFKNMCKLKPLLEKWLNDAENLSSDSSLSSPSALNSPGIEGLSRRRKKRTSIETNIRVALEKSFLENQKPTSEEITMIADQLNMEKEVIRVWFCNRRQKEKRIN
Oct1 DNA binding domain (Oct1-DBD);OCA-B, sequence (Q16633 whole entry, chain 2 of 2, the tested form may be a part): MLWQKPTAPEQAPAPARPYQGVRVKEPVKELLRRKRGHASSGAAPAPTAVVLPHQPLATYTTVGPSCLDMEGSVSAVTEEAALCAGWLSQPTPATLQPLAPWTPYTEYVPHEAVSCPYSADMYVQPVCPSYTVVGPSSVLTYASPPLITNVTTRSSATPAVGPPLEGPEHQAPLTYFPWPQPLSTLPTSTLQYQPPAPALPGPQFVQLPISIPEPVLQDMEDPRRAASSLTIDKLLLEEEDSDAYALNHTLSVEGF

B1: RHS6-Cy5 (dsDNA)
DNA 1: CACCATGCAAAGGATGTGCGCGGACTCCCTTCCATTTGCTGGCCTCTTATCTGATA
DNA 2: TATCAGATAAGAGGCCAGCAAATGGAAGGGAGTCCGCGCACATCCTTTGCATGGTG
Regarding B1, the binding result is on record as “binds”.
